Columns and labels:
[1] = target: T1, dimeric form of cynomolgus monkey (Macaca fascicularis) PRLR (Example 12 ELISA) (cynomolgus monkey (Macaca fascicularis)); assay: blocking ELISA: 10 nM dimeric monkey PRLR premixed with mAb (520 pM to 30 nM), plate-coated human PRL
T1 construct: also called monkey PRLR
Procedure: (§1) Dimeric forms of human or cynomolgus monkey (Macaca fascicularis) PRLR and monomeric human PRL were used in this assay. […] After 1-hour incubation, captured PRLR was detected with HRP-conjugated goat anti-Fcγ antibody and visualized with TMB colorimetric substrate by measuring absorbance at 450 nm. […] Mixtures were then added to plates coated with in 1 μg/mL PRL and captured PRLR was detected as described above. Data were analyzed using a four-parameter logistic equation over an 11-point response curve in GraphPad Prism software and IC₅₀ values were calculated.

[2] = target: T2, hPRLR-mmH (recombinant extracellular domain of hPRLR with a C-terminal myc-myc-hexahistidine tag) (human); assay: H/D exchange MS; hPRLR-mmH bound to H1H6958N2 on NHS agarose beads
T2 construct: the entry includes the myc-myc-His6 tag; also called truncated form of PRLR
T2 chain: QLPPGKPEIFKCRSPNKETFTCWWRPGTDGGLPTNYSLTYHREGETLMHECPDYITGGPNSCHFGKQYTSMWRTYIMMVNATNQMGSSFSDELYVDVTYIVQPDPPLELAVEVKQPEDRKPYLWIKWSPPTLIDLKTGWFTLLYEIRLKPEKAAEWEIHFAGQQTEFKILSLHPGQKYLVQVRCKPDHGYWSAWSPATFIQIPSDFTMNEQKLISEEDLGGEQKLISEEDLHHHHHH

[3] = target: T3, mouse PRLR with an HA tag on HEK293 cells (mouse, UniProt Q08501 20-608); assay: FACS on HEK293/mPRLR cells
T3 construct: whole, on cells; also called HEK293/mPRLR; rodent PRLR; not shown: HA tag
T3 sequence (looked up): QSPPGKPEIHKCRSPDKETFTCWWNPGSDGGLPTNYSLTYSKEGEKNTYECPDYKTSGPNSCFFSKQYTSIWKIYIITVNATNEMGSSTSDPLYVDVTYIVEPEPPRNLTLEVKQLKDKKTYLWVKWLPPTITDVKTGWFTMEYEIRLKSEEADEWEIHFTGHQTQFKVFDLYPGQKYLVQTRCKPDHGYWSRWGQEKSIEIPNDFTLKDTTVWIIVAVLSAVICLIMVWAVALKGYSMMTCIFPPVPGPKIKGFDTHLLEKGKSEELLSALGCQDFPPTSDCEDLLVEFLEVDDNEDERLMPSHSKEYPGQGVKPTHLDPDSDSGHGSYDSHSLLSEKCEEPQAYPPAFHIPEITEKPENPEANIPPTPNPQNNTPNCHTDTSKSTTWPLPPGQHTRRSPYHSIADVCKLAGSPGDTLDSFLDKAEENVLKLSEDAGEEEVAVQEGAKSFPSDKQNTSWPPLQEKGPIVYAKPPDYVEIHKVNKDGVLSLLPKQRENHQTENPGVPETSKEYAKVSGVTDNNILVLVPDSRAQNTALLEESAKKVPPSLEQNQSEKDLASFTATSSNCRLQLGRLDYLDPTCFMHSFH

[4] = target: T4, human prolactin receptor (PRLR) on cells (human, UniProt P16471 25-622); assay: cell-based or functional assay
T4 sequence: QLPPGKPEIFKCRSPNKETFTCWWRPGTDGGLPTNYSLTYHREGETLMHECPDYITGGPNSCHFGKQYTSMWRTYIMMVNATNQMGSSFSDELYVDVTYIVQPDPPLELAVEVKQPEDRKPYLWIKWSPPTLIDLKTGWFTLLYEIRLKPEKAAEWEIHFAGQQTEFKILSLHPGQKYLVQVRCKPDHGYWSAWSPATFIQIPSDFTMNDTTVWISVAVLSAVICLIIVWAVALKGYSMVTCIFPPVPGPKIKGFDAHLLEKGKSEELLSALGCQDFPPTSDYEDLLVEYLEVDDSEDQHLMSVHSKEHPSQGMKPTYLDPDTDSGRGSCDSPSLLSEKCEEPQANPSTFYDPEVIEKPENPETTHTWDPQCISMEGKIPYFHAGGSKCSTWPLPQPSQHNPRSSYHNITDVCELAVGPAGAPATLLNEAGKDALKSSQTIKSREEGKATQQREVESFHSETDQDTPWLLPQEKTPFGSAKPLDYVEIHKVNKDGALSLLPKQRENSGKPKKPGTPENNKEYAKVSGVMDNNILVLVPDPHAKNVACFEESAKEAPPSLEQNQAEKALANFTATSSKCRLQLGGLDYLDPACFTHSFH

[5] = target: T5, dimeric form of human PRLR (Example 12 ELISA) (human); assay: blocking ELISA: 10 nM dimeric human PRLR premixed with mAb (520 pM to 30 nM), plate-coated human PRL
T5 construct: PRLR'
T5 sequence (P16471 whole entry, looked up): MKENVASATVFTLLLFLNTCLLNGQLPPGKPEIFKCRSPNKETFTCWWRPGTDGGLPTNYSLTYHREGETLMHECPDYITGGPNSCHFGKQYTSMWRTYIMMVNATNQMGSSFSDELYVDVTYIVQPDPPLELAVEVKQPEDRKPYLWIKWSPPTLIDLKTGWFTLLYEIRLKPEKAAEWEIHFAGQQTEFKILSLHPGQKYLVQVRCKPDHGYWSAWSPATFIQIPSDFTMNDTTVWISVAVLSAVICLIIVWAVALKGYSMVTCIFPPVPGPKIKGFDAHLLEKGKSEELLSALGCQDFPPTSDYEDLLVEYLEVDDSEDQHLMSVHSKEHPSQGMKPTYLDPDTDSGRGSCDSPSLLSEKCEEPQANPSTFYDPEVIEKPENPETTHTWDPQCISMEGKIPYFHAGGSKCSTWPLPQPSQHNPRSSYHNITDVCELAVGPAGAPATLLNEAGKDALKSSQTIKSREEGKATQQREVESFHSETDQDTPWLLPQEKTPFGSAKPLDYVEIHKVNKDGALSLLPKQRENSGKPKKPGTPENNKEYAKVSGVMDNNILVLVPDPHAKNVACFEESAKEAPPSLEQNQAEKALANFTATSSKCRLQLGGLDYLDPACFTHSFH
Procedure: as §1

[6] = target: T6, hPRLR-mmH (recombinant extracellular domain of hPRLR with a C-terminal myc-myc-hexahistidine tag) (human); assay: H/D exchange; hPRLR-mmH captured on H1H6958N2 agarose beads
T6 construct: also called truncated form of PRLR
T6 chain: T2 chain

IL-6R = target: T7, IL-6R (human, UniProt P08887 20-468); assay: flow cytometry, anti-IL-6R antibody on KG-1 cells (endogenous IL-6R), PE anti-human secondary
T7 construct: whole, on cells
T7 sequence (looked up): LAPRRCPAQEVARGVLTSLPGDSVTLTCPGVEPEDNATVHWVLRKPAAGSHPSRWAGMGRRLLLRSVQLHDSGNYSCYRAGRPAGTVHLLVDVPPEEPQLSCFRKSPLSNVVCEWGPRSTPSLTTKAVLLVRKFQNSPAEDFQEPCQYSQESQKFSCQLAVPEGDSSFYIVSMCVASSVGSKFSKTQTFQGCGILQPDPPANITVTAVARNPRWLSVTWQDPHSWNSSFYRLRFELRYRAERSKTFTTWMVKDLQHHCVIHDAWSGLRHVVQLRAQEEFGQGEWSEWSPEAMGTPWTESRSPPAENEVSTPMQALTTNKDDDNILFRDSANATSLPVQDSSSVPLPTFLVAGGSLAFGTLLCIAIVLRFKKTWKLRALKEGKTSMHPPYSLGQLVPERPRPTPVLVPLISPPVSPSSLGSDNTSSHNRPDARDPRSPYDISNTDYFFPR

B1: H1H6958N2 (antibody, human IgG1, V domains shown)
VH: QVQLVESGGGVVQPGRSLRLSCGASGFTFRNYGMQWVRQGPGKGLEWVTLISFDGNDKYYADSVKGRFTISRDNSKNTLFLQMNSLRTEDTAVYYCARGGDFDYWGQGTLVTVSS
VL: DIQMTQSPSSLSASVGDRVTITCRASQDIRKDLGWYQQKPGKAPKRLIYAASSLHSGVPSRFSGSGSGTEFTLTISSLQPEDFATYYCLQHNSYPMYTFGQGTKLEIK
notes: Tested with human IgG1 Fc (H1H); also called HIH6958N2
IC50 [1]: 5.8 nM | binding result [2]: binds | binding result [3]: no binding | IC50, block of PRL-induced STAT5-luciferase activity (2 nM PRL) [4]: 0.4 nM | IC50 [5]: 5 nM

B2: H1H6958N2 (antibody, V domains shown)
VH: B1 VH
VL: B1 VL
notes: In the H/D exchange experiment the antibody was covalently attached to NHS agarose beads; also called H2M6958N2 (same variable domains, mouse IgG2 Fc); anti-PRLR antibody H1H6958N2
binding result [6]: binds

B3: VV6A9-5 (antibody, V domains shown)
VH: EVQLVESGGGLVQPGRSLRLSCAASGFTFDDYALHWVRQAPGKGLEWVSGVSWNGGRIGYADSVKGRFTISRDNAKNSLFLQMNSLRVEDTALYYCAKGRDAFDIWGQGTLVTVSS
VL: DIQMTQSPSSVSASVGDRVTITCRASQGISSWLAWYQQKPGKAPKLLIYAASSLQSGVPSRFSGSGSGTDFTLTISSLQPEDFATYYCQHAYSFPYTFGQGTKLEIK
Fold Over Background (FACS MFI above isotype control) (IL-6R): 7 fold over background
